These substances were tested against His-Xpress-SV40NLS-HBrd41047-1362 (human) (UniProt O60885).
Substance “HPV16 E2 D122A (pCMV4-16E2 mutant, expressed in C33A cells) (from UniProt P03120 1-365)” has a percent of wild type E2 binding of over 40%. Work on “HPV16 E2 E39A (pCMV4-16E2 mutant, expressed in C33A cells) (from UniProt P03120 1-365)” yielded a percent of wild type E2 binding of over 40%. Substance “HPV16 E2 E90A (pCMV4-16E2 mutant, expressed in C33A cells) (from UniProt P03120 1-365)” has a percent of wild type E2 binding of over 40%. With “HPV16 E2 F121A (pCMV4-16E2 mutant, expressed in C33A cells) (from UniProt P03120 1-365)” the percent of wild type E2 binding was over 40%. With “HPV16 E2 K68A (pCMV4-16E2 mutant, expressed in C33A cells) (from UniProt P03120 1-365)” the percent of wild type E2 binding was over 40%. In the case of “HPV16 E2 L79A (pCMV4-16E2 mutant, expressed in C33A cells) (from UniProt P03120 1-365)”, the percent of wild type E2 binding is reported as over 40%. Work on “HPV16 E2 R37A (pCMV4-16E2 mutant, expressed in C33A cells) (from UniProt P03120 1-365)” yielded a percent of wild type E2 binding of under 10%. “HPV16 E2 T93A (pCMV4-16E2 mutant, expressed in C33A cells) (from UniProt P03120 1-365)” gave a percent of wild type E2 binding of over 40%. Work on “HPV16 E2 W33A (pCMV4-16E2 mutant, expressed in C33A cells) (from UniProt P03120 1-365)” yielded a percent of wild type E2 binding of under 10%. “HPV16 E2 W92A (pCMV4-16E2 mutant, expressed in C33A cells) (from UniProt P03120 1-365)” showed a percent of wild type E2 binding of under 10%. Work on “HPV16 E2 Y138A (pCMV4-16E2 mutant, expressed in C33A cells) (from UniProt P03120 1-365)” yielded a percent of wild type E2 binding of over 40%. “HPV16 E2 Y178A (pCMV4-16E2 mutant, expressed in C33A cells) (from UniProt P03120 1-365)” showed a percent of wild type E2 binding of over 40%.

Each substance was assayed against in vitro translated 35S-labeled Brd4-CTD (human) (UniProt O60885).
With “GST-tagged HPV16 E2 R37A (from UniProt P03120 1-365)” the percent of Brd4 bound compared to wild type E2 was under 20%. “GST-tagged HPV16 E2 W33A (from UniProt P03120 1-365)” gave a percent of Brd4 bound compared to wild type E2 of under 20%. “GST-tagged HPV16 E2 W92A (from UniProt P03120 1-365)” was tested, and the percent of Brd4 bound compared to wild type E2 was under 20%. “GST-tagged HPV16 E2 W134A (from UniProt P03120 1-365)” gave a percent of Brd4 bound compared to wild type E2 of under 20%.

— US20060223055A1
